Reference: article PMC6827562 (Structure (London, England : 1993), 2019)

Assays:
PP-1c (Homo sapiens) = PP-1c (Homo sapiens) (UniProt P62136); conditions: cited from earlier work
[1] = molecular target: T1, Protein phosphatase-1cα (PP-1cα) (human, UniProt P62136 1-330); test: crystal structure
[2] = molecular target: T1, Protein phosphatase-1cα (PP-1cα); test: SEC-MALS
p53 DBD = p53 DBD (human, UniProt P04637 94-292); test: EMSA
p53 DBD, sequence (P04637 94-292): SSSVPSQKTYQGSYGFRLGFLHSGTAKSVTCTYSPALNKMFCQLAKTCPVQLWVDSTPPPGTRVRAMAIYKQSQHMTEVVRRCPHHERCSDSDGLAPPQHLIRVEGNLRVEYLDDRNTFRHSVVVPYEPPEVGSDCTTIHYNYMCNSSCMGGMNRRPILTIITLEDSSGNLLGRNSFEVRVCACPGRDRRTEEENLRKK

T1 sequence (P62136 whole entry): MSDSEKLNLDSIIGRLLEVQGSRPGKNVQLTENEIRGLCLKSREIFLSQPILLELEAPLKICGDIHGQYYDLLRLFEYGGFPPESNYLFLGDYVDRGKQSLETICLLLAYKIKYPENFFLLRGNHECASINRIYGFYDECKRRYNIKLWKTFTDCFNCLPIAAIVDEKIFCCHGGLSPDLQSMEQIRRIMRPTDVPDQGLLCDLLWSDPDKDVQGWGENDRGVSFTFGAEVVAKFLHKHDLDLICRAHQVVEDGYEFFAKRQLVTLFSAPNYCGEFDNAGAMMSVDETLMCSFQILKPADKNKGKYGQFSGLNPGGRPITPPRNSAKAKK
PP-1c (Homo sapiens), sequence (P62136 2-330): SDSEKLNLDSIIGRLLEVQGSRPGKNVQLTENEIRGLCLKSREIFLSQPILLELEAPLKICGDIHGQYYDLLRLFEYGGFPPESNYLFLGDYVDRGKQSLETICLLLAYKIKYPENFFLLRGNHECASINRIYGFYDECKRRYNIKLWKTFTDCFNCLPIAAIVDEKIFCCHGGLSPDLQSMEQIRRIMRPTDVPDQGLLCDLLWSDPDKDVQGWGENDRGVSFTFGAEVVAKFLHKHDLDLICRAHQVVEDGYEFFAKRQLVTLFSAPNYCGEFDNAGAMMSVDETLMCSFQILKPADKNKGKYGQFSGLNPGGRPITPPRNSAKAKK

In the case of iASPP (from UniProt Q8WUF5), the Kd (PP-1c (Homo sapiens)) is listed as 26 nM.

B1: iASPP_(608–828) (domain or fragment, human, UniProt Q8WUF5 608-828, looked up)
chain: RSVLRKAGSPRKARRARLNPLVLLLDAALTGELEVVQQAVKEMNDPSQPNEEGITALHNAICGANYSIVDFLITAGANVNSPDSHGWTPLHCAASCNDTVICMALVQHGAAIFATTLSDGATAFEKCDPYREGYADCATYLADVEQSMGLMNSGAVYALWDYSAEFGDELSFREGESVTVLRRDGPEETDWWWAALHGQEGYVPRNYFGLFPRVKPQRSKV
B1: binds [1].

B2: ASPP2_(905–1128) (domain or fragment, human, UniProt Q13625 905-1128, looked up)
chain: RTNLRKTGSERIAHGMRVKFNPLALLLDSSLEGEFDLVQRIIYEVDDPSLPNDEGITALHNAVCAGHTEIVKFLVQFGVNVNAADSDGWTPLHCAASCNNVQVCKFLVESGAAVFAMTYSDMQTAADKCEEMEEGYTQCSQFLYGVQEKMGIMNKGVIYALWDYEPQNDDELPMKEGDCMTIIHREDEDEIEWWWARLNDKEGYVPRNLLGLYPRIKPRQRSLA
B2: binds [2].

B3: iASPP(621–828) (domain or fragment, human, UniProt Q8WUF5 621-828, looked up)
chain: RRARLNPLVLLLDAALTGELEVVQQAVKEMNDPSQPNEEGITALHNAICGANYSIVDFLITAGANVNSPDSHGWTPLHCAASCNDTVICMALVQHGAAIFATTLSDGATAFEKCDPYREGYADCATYLADVEQSMGLMNSGAVYALWDYSAEFGDELSFREGESVTVLRRDGPEETDWWWAALHGQEGYVPRNYFGLFPRVKPQRSKV
B3: binds [2].

B4: PUMA p53 site (dsDNA)
DNA 1: CGCGCCTGCAAGTCCTGACTTGTCCGCGGC
DNA 2: GCCGCGGACAAGTCAGGACTTGCAGGCGCG
B4: binds (p53 DBD).
